Data reported in publication doi:10.1101/2025.01.15.633165, “The mechanism of DRB7.2:DRB4 mediated sequestering of endogenous inverted-repeat dsRNA precursors in plants” (bioRxiv, 2025).
Where “and” joins values, the source holds several entries; their conditions need not be identical. Equal entries are not always repeated.

T1: DRB7.2N (Arabidopsis thaliana, UniProt F4JHB3 1-81)
T1 sequence: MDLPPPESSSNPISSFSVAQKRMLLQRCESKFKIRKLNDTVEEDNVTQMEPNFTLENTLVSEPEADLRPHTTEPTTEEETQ

T2: DRB7.2 (Arabidopsis thaliana, UniProt F4JHB3 1-190)
T2 sequence: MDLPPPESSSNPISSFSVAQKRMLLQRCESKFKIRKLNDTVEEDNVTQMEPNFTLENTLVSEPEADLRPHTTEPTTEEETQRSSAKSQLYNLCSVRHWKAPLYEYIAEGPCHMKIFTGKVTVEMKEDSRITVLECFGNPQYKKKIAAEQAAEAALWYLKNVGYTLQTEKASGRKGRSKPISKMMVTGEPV

T3: DRB4 (Arabidopsis thaliana, UniProt Q8H1D4 1-355)
T3 sequence: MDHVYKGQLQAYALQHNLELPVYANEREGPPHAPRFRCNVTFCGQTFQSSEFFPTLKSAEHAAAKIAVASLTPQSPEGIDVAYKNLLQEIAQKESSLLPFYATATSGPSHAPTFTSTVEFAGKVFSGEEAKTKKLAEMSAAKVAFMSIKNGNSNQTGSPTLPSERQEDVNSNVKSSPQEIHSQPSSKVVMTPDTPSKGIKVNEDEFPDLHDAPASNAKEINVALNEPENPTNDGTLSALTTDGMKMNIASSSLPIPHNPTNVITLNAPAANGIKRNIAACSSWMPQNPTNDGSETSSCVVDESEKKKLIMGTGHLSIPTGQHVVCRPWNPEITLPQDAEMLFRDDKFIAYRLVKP

T4: DRB4D3 (Arabidopsis thaliana, UniProt Q8H1D4 294-355)
T4 sequence: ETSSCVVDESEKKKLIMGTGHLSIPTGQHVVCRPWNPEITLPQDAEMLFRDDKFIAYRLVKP

T5: DRB7.2;DRB4 (Arabidopsis thaliana;Arabidopsis …, UniProt F4JHB3;Q8H1D4 1-190;1-355, |)
T5 sequence 1: T2 sequence
T5 sequence 2: T3 sequence

T6: DRB7.2M (T71-G162) (A. thaliana, UniProt F4JHB3 71-162)
T6 construct: DRB7.2, A. thaliana, UniProt F4JHB3, residues T71-G162 (dsRBD S84-G162 with the N-terminal flanking residues T71-S83); Isotope labelled (15N, 13C, 2H) or perdeuterated for NMR; Further cloning details are in Paturi & Deshmukh, 2023; also called dsRBD region of DRB7.2; DRB7.2 dsRBD
T6 sequence (looked up): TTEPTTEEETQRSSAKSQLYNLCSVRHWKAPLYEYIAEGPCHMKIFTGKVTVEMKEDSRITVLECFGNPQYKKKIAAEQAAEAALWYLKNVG

T7: DRB7.2M (Arabidopsis thaliana, UniProt F4JHB3 71-162)
T7 sequence: T6 sequence (looked up)

T8: DRB7.2M;DRB4D3 (Arabidopsis thaliana;Arabidopsis …, UniProt F4JHB3;Q8H1D4 71-162;294-355, |)
T8 sequence 1: T6 sequence (looked up)
T8 sequence 2: T4 sequence

T9: DRB4C (154-355) (A. thaliana, UniProt Q8H1D4 154-355)
T9 construct: DRB4, A. thaliana, UniProt Q8H1D4, residues 154-355 (flexible segment N154-S293 and domain D3 E294-P355); source: cloned, expressed and purified as described (Chiliveri et al, 2017)
T9 sequence (looked up): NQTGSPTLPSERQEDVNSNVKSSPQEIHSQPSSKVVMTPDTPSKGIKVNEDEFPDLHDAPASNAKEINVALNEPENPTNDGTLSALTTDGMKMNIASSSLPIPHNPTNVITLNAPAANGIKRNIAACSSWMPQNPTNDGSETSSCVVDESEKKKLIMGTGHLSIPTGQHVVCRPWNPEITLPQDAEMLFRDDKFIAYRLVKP

B1: 40 bp RNA (pre-siRNA) (dsRNA)
RNA 1: AACAAGCGAAUGAGUCAUUCAUCCUAAGUCUGCAUAAAGU
RNA 2: ACUUUAUGCAGACUUAGGAUGAAUGACUCAUUCGCUUGUUC
modifications: 5'-phosphate on guide strand
B2: DRB4 (1-355) (natural protein, A. thaliana, UniProt Q8H1D4 1-355, looked up)
chain: T3 sequence
notes: DRB4, A. thaliana, UniProt Q8H1D4, residues 1-355; source: cloned, expressed and purified as described (Chiliveri et al, 2017)
B3: DRB4D3 (294-355) (domain or fragment, A. thaliana, UniProt Q8H1D4 294-355, looked up)
chain: T4 sequence
notes: DRB4, A. thaliana, UniProt Q8H1D4, residues 294-355 (E294-P355); Isotope labelled (15N, 13C, 2H) or perdeuterated for NMR; source: cloned, expressed and purified as described (Chiliveri et al, 2017)
B4: 80 bp dsRNA (dsRNA)
RNA 1: GGGUGCUGUUUCUCGUGUUCGUGUUCGUUUCUCUUCUCUUGUCCUUGUUCUGUUCUCCUUUGUUCGUUCCUGUUCCCCUU
RNA 2: AAGGGGAACAGGAACGAACAAAGGAGAACAGAACAAGGACAAGAGAAGAGAAACGAACACGAACACGAGAAACAGCACCC
B5: DRB7.2 (M1-V190) (natural protein, A. thaliana, UniProt F4JHB3 1-190, looked up)
chain: T2 sequence
notes: DRB7.2, A. thaliana, UniProt F4JHB3, residues M1-V190; Perdeuterated and U-15N labelled for NMR; Further cloning details are in Paturi & Deshmukh, 2023; also called full-length DRB7.2

Assays:
[1] = target: T1, DRB7.2N; experiment: EMSA; 20 uM protein, 750 nM RNA; EMSA: 50 mM potassium phosphate pH 7.0, 50 mM NaCl, 50 mM Na2SO4, 2 mM DTT; 40 bp RNA at 750 nM, 30 min, room temperature; 32P 80 bp dsRNA at 1 nM, 1 h, 4 C; details: protein: recombinant, tags: His6 (pET28a), label: none (SYBR Gold stain), 1 nt 3' overhang (C) on complementary strand
[2] = target: T2, DRB7.2; experiment: EMSA; apparent Kd; Hill 2.68±0.77; EMSA: 50 mM potassium phosphate pH 7.0, 50 mM NaCl, 50 mM Na2SO4, 2 mM DTT; 40 bp RNA at 750 nM, 30 min, room temperature; 32P 80 bp dsRNA at 1 nM, 1 h, 4 C; details: protein: recombinant, tags: His6 tag with TEV cleavage (pETtrx-1b), label: none (SYBR Gold stain), 1 nt 3' overhang (C) on complementary strand
[3] = target: T3, DRB4; experiment: EMSA; apparent Kd; Hill 2.44±0.45; EMSA: 50 mM potassium phosphate pH 7.0, 50 mM NaCl, 50 mM Na2SO4, 2 mM DTT; 40 bp RNA at 750 nM, 30 min, room temperature; 32P 80 bp dsRNA at 1 nM, 1 h, 4 C; details: protein: recombinant, label: none (SYBR Gold stain), 1 nt 3' overhang (C) on complementary strand
[4] = target: T4, DRB4D3; experiment: EMSA; 20 uM protein, 750 nM RNA; also higher concentrations; EMSA: 50 mM potassium phosphate pH 7.0, 50 mM NaCl, 50 mM Na2SO4, 2 mM DTT; 40 bp RNA at 750 nM, 30 min, room temperature; 32P 80 bp dsRNA at 1 nM, 1 h, 4 C; details: protein: recombinant, label: none (SYBR Gold stain), 1 nt 3' overhang (C) on complementary strand
[5] = target: T5, DRB7.2;DRB4; experiment: EMSA; apparent Kd; Hill 2.05±0.65; EMSA: 50 mM potassium phosphate pH 7.0, 50 mM NaCl, 50 mM Na2SO4, 2 mM DTT; 40 bp RNA at 750 nM, 30 min, room temperature; 32P 80 bp dsRNA at 1 nM, 1 h, 4 C; details: protein: recombinant;recombinant, tags: His6 tag with TEV cleavage (pETtrx-1b);, label: none (SYBR Gold stain), 1 nt 3' overhang (C) on complementary strand
[6] = target: B5; experiment: ITC; DRB4 constructs (200 μM, syringe) injected into DRB7.2 or DRB7.2M (20 μM, cell); 25 °C; 50 mM potassium phosphate pH 7.0, 50 mM NaCl, 50 mM Na2SO4, 2 mM DTT; details: both partners purified
[7] = target: T6, DRB7.2M (T71-G162); experiment: ITC; DRB4D3 and the preformed complex of DRB7.2M:80 bp dsRNA; one site binding model; details: both partners purified
[8] = target: T6, DRB7.2M (T71-G162); experiment: ITC; DRB4 constructs (200 μM, syringe) injected into DRB7.2 or DRB7.2M (20 μM, cell); 25 °C; 50 mM potassium phosphate pH 7.0, 50 mM NaCl, 50 mM Na2SO4, 2 mM DTT; details: both partners purified
[9] = target: T6, DRB7.2M (T71-G162); experiment: MALDI-TOF MS; samples after SEC; 0.5 mg/mL, 2 mg/mL and 5 mg/mL; details: both partners purified
[10] = target: T4, DRB4D3; experiment: EMSA; EMSA: 50 mM potassium phosphate pH 7.0, 50 mM NaCl, 50 mM Na2SO4, 2 mM DTT; 40 bp RNA at 750 nM, 30 min, room temperature; 32P 80 bp dsRNA at 1 nM, 1 h, 4 C; details: protein: recombinant; Methods text mentions 1 nt 3' overhang
[11] = target: T2, DRB7.2; experiment: EMSA; saturation at ~2 uM; 1 nM RNA, 4 C; EMSA: 50 mM potassium phosphate pH 7.0, 50 mM NaCl, 50 mM Na2SO4, 2 mM DTT; 40 bp RNA at 750 nM, 30 min, room temperature; 32P 80 bp dsRNA at 1 nM, 1 h, 4 C; details: protein: recombinant; tags: His6 tag with TEV cleavage (pETtrx-1b); Methods text mentions 1 nt 3' overhang
[12] = target: T7, DRB7.2M; experiment: as above; details: protein: recombinant; tags: His6 tag with TEV cleavage (pETtrx-1b); Methods text mentions 1 nt 3' overhang
[13] = target: T8, DRB7.2M;DRB4D3; experiment: EMSA; saturation at ~2 uM; 1 nM RNA, 4 C; ternary complex also in Fig. S11D; EMSA: 50 mM potassium phosphate pH 7.0, 50 mM NaCl, 50 mM Na2SO4, 2 mM DTT; 40 bp RNA at 750 nM, 30 min, room temperature; 32P 80 bp dsRNA at 1 nM, 1 h, 4 C; details: protein: recombinant;recombinant; tags: His6 tag with TEV cleavage (pETtrx-1b);; copies: 1;1; Methods text mentions 1 nt 3' overhang
[14] = target: T9, DRB4C (154-355); experiment: ITC; DRB4 constructs (200 μM, syringe) injected into DRB7.2 or DRB7.2M (20 μM, cell); 25 °C; 50 mM potassium phosphate pH 7.0, 50 mM NaCl, 50 mM Na2SO4, 2 mM DTT; details: both partners purified
[15] = target: B2; experiment: as above; details: both partners purified

Binder: B1
binding result [1]: no binding
Kd [2]: 2280 ± 270 nM
Kd [3]: 3600 ± 310 nM
binding result [4]: no binding
Kd [5]: 1020 ± 170 nM

Binder: B2
stoichiometry N [6]: 0.8

Binder: B3
Kd [7]: 9.43 nM and ~9.5 nM
stoichiometry N [7]: 0.81
Kd [8]: 2.84 ± 1.15 nM
stoichiometry N [8]: 0.95
Kd [6]: 2.2 ± 1.2 nM
stoichiometry N [9]: 1

Binder: B4
binding result [10]: no binding
binding result [11]: binds
binding result [12]: binds
binding result [13]: binds

Binder: B5
Kd [14]: 2.8 ± 1.6 nM
Kd [15]: 3.1 ± 1.5 nM
